# In paper PMC2705282 (Journal of molecular biology, 2009):
# Positions count from the first letter of the chain named. In names and notes the source's numbering stands.
# B1: wild-type URO-D module of single-chain URO-D (enzyme, human)
# chain: MEANGLGPQGFPELKNDTFLRAAWGEETDYTPVWCMRQAGRYLPEFRETRAAQDFFSTCRSPEACCELTLQPLRRFPLDAAIIFSDILVVPQALGMEVTMVPGKGPSFPEPLREEQDLERLRDPEVVASELGYVFQAITLTRQRLAGRVPLIGFAGAPWTLMTYMVEGGGSSTMAQAKRWLYQRPQASHQLLRILTDALVPYLVGQVVAGAQALQLFESHAGHLGPQLFNKFALPYIRDVAKQVKARLREAGLAPVPMIIFAKDGHFALEELAQAGYEVVGLDWTVAPKKARECVGKTVTLQGNLDPCALYASEEEIGQLVKQMLDDFGPHRYIANLGHGLYPDMDPEHVGAFVDAVHKHSRLLRQN
# B2: F217Y URO-D module of single-chain URO-D (enzyme, human)
# chain: B1 chain with F217Y
# B3: Y164G URO-D module of single-chain URO-D (enzyme, human)
# chain: B1 chain with Y164G
# Columns and labels:
# [1] = biological target: B2; assay: crystal structure
# [2] = biological target: B1; assay: crystal structure
binding result [1],binding result [2],Binder
binds,–,B1
–,binds,B2
–,binds,B3
